The source of these data is US12195761B2, “Bioprinted, 3D scaffolds for cellular test beds and methods of use thereof” (University of Florida Research Foundation, Inc., priority 2020, dated 2025).

One assay relates to rat fibroblast. Description: Supplemental rat fibroblast viability study after printing in the bioink. The format is cell-based. Particulars: rat fibroblasts; compared to I2959 counterparts. The text has this:
It is anticipated that crosslinking time can be reduced for the LAP group in the future to further increase viability.^40 Therefore, LAP became the crosslinker used for the later experiments for the advantages of LAP over I2959, as previously reported.^31,41

Another assay relates to DRG neurites. Description: DRG neurite outgrowth in competitive in vitro test beds, β-III tubulin neurite length. Type of assay: cell-based. Particulars: 7 days, n=5; for ratio of neurite length, growth factor side to control side: growth factor/control test bed, 1 μg/mL. The procedure: (§1) DRG Neurite Outgrowth in Competitive in vitro Test Beds. A 6-layer rectangular model with two arms or “chambers” were printed on each end (12 mm long, 5 mm wide, and 1.7 mm height). A base layer (0.7 mm height) was printed containing only the hydrogel. On top of the base on either side two “chambers” were printed; each chamber contained a concentration of 1 μg/mL of either NGF, GDNF, or no GF as control. To establish a competitive cue assay, three test bed groups were printed: NGF versus control (NGF/control), GDNF/control, or NGF/GDNF. DRGs were trimmed on the same day as testbed fabrication. Each DRG was semi-encapsulated at the center of the hydrogel testbeds by first placing the DRG directly in the middle of the two-chambered testbed and then securing in place with pH-neutralized Col-d solution at a concentration of 3 mg/mL. Col-d allowed for securing the DRG quickly without the need for direct UV exposure of the DRG. The test beds were incubated for 30 minutes to allow for collagen gelation and then media was added. Media was changed three hours following the addition of DRGs to account for bulk growth factor release into the media. DRGs were cultured for 7 days with media being changed every 2 days.
Following 7 days of culture, DRGs were fixed in 2% paraformaldehyde for 1 hour followed by three PBS rinses of 45 minutes each before blocking in 0.3% Triton X-100 and 3% goat serum in 1×PBS for 1 hour. The primary antibodies used were β-III tubulin to identify microtubules (i.e., indicating neurite extension) and GAP43, a “plasticity” protein that is expressed at high levels in neuronal growth cones (a secondary indicator of new neurite formation). Both antibodies were diluted at 1:500 dilutions and incubated on samples at 4° C. for 48 hours. […] ImageJ and the neurite tracer plugin were used to quantify neurite lengths extending from the DRG body. […] Positive area was measured as directional outgrowth from each DRG in the left and right directions toward the growth factor chambers relative to the center of the DRG body. […]

The test system of assay [1] is DRG neural growth cone (GAP43). As to the kind of experiment: DRG neurite outgrowth in competitive in vitro test beds, GAP43 signal. The format is cell-based. The conditions noted are these: normalized to total positive area, 7 days, n=3. How it is done:
as §1
Following 7 days of culture, DRGs were fixed in 2% paraformaldehyde for 1 hour followed by three PBS rinses of 45 minutes each before blocking in 0.3% Triton X-100 and 3% goat serum in 1×PBS for 1 hour. The primary antibodies used were β-III tubulin to identify microtubules (i.e., indicating neurite extension) and GAP43, a “plasticity” protein that is expressed at high levels in neuronal growth cones (a secondary indicator of new neurite formation). Both antibodies were diluted at 1:500 dilutions and incubated on samples at 4° C. for 48 hours. DRGs were then washed with 0.05% Tween-20 in 1×PBS three times for 6 hours each. Secondary antibodies, AlexaFluor 488 α-rabbit and AlexaFluor 568 α-mouse at 1:500 dilutions, were added for 16 hours in blocking buffer. DRGs were rinsed with 0.05% Tween-20 in 1×PBS three times for 6 hours each. Cell nuclei were stained with DAPI in deionized water for 5 minutes at room temperature. For β-III tubulin marker, top-view images of DRGs were acquired with a Zeiss Axio Imager 2 microscope. ImageJ and the neurite tracer plugin were used to quantify neurite lengths extending from the DRG body. From a ranked list of directional neurite lengths, the five longest neurite extensions were averaged for each chamber side. […] For the GAP43 marker, samples were imaged from the top with a Zeiss LMA 880 confocal microscope. ImageJ was used to threshold positive signal for all images. Positive area was measured as directional outgrowth from each DRG in the left and right directions toward the growth factor chambers relative to the center of the DRG body. […]

For a further assay, the system named is Schwann cells (SCs). Description: SC migration in 3D bioprinted hydrogels. Type of assay: cell-based, Rat. Particulars: 1 μg/mL growth factor in bioprinted MAHA 10/Col-I hydrogel; 7 days; n=5. How it is done:
SC Migration in 3D Bioprinted Hydrogels. The experimental groups included 1 μg/mL of NGF or GDNF encapsulated within 1 mL of bioink, whereas the control group contained no growth factor (no GF) (n=5). The bioinks were used to print a cylinder of 8 mm diameter and 2 mm height. The control group was printed without any growth factor. Next, SCs were seeded on top of the hydrogels at a cell density of 10^5 cells/cm^2 and cultured for 7 days with the media changed every 2 days. Hydrogel samples, stained using a Live/Dead assay, were then placed cell-side-down in a 35-mm diameter glass-bottom dish and imaged using a Zeiss LSM 880 laser-scanning confocal microscope. Z-stacked image of 500 μm deep at 10× magnification were analyzed to assess SC migration into the hydrogel using a Zeiss ZEN 2 software by creating a heat map based on relative depth within the hydrogel to measure the farthest migration points (n=5) in each sample. By taking the average of cell migration depth, this assessment examined the total migration into the biomaterials in 3D culture.

Regarding `Cc1cc(C)c(C(=O)P(=O)([O-])c2ccccc2)c(C)c1.[Li+]` [LAP, lithium phenyl-2,4,6-trimethylbenzoyl-phosphinate], the “viability of bioprinted cells by photoinitiator” value in the assay on rat fibroblast was “highest viability”.

B1: glial cell line-derived neurotrophic factor (protein, UniProt P39905 78-211, looked up)
Glial cell line-derived …: SPDKQMAVLPRRERNRQAAAANPENSRGKGRRGQRGKNRGCVLTAIHLNVTDLGLGYETKEELIFRYCSGSCDAAETTYDKILKNLSRNRRLVSDKVGQACCRPIAFDDDLSFLDDNLVYHILRKHSAKRCGCI
notes: glial cell line-derived neurotrophic factor (R&D Systems 512-GF-010/CF)
Take B1: in the assay with DRG neurites, the “ratio of neurite length, growth factor side to control side” value was found to be 1.41±0.06. The results for the “fraction positive GAP43 signal” value in assay [1] (NGF/GDNF test bed) and in assay [1] (growth factor/control test bed) were 0.42 and 0.66, respectively. Further, in the assay with Schwann cells (SCs), the “SCs migrated distance into hydrogels” value is recorded as 403±79.6 μm.

B2: Rat beta-nerve growth factor (protein, UniProt P25427 122-241, looked up)
Beta-nerve growth factor: SSTHPVFHMGEFSVCDSVSVWVGDKTTATDIKGKEVTVLGEVNINNSVFKQYFFETKCRAPNPVESGCRGIDSKHWNSYCTTTHTFVKALTTDDKQAAWRFIRIDTACVCVLSRKAARRG
notes: Rat beta-nerve growth factor (R&D Systems 556-NG-100)
As for B2, the “ratio of neurite length, NGF to GDNF” value in the assay on DRG neurites (NGF/GDNF test bed, 1 μg/mL each) stood at 1.09±0.19. Further, the “ratio of neurite length, growth factor side to control side” value with DRG neurites was 1.42±0.13. Moreover, the “fraction positive GAP43 signal” value in assay [1] (NGF/GDNF test bed) stood at 0.58; in assay [1] (growth factor/control test bed), 0.63. Moreover, in the assay on Schwann cells (SCs), the “SCs migrated distance into hydrogels” value worked out at 301±89.4 μm.
